The source of these data is patent publication WO2009138494A2 (dated 2009).

The target of assay [1] is T1, recombinant murine TLR2/Fc chimera, R&D Systems cat no: 1530-TR (murine, UniProt Q9QUN7 25-587).
T1 construct: Bought Fc chimera, coated on ELISA plates; also called mTLR2/Fc; mTLR2; not shown: Fc part of the chimera
T1 sequence (looked up): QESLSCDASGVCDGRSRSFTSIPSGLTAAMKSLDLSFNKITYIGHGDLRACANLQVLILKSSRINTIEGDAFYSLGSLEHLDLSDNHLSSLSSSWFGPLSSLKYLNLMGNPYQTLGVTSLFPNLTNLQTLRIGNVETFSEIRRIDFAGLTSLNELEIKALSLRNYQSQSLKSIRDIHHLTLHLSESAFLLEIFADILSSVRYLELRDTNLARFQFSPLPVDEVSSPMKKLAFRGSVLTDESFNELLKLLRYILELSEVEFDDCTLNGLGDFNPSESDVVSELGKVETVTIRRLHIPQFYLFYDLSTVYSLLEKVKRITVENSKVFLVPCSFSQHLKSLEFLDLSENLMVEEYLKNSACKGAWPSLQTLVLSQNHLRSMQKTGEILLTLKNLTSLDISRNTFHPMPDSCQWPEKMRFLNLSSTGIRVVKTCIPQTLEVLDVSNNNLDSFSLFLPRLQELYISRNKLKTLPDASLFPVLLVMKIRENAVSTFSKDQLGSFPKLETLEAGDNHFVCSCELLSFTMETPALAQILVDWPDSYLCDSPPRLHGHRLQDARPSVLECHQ
As to the kind of experiment: ELISA: TLR coated at 2 ug/ml, periplasmic extract of the clone, anti-VHH detection, OD against no-Nanobody control. (In general: ELISA stands for enzyme-linked immunosorbent assay.)

The target of assay [2] is T2, recombinant human TLR4/MD2 (rhTLR4/MD2), R&D Systems cat no: 3146-TM/CF (human, UniProt O00206 24-631; Q9Y6Y9 17-160, limits assumed).
T2 construct: Bought protein, coated on ELISA plates
The assay is described as above.

T2 sequence (O00206 24-631 limits assumed, chain 1 of 2): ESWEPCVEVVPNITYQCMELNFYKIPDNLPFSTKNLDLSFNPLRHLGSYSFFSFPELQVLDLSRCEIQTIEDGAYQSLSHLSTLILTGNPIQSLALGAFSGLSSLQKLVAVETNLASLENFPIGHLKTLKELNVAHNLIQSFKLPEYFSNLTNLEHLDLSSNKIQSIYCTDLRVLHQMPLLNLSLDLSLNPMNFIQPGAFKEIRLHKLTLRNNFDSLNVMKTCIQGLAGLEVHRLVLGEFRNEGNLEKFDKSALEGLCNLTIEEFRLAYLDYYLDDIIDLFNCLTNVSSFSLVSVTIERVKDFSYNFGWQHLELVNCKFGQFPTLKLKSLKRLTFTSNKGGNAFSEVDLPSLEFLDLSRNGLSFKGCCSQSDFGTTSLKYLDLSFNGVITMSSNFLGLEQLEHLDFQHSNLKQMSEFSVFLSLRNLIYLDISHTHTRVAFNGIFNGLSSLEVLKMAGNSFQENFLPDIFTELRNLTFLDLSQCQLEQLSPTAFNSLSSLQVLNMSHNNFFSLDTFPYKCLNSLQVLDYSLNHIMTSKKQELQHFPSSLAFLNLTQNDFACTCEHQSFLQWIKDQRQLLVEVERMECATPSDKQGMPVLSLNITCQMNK
T2 sequence (Q9Y6Y9 17-160 limits assumed, chain 2 of 2): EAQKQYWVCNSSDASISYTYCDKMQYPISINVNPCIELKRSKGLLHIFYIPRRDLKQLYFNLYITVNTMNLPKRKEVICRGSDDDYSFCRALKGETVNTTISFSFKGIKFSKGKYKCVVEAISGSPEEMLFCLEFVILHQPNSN

B1: 172-H4 (VHH)
VHH: EVQLVESGGGLVQAGGSLRLSCAASGRTFDSYAMGWFRQAPGKEREFVAAIGYSGTYDADSVKGRFTISRDNAKKTTVYLQMNNLKPEDTAVYYCAAAGTFSTTVGTTTSHYDYWGQGTQVTVSS
notes: not shown: C-terminal c-myc tag and (His)6 tag coded by the vector
B1: the binding result in assay [1] is on record as “binds”.

B2: 161-F4 (VHH)
VHH: EVQLVESGGGLVQPGGSLRLSCAASGSIGSGDAMGWYRQPPGKQRERVATITSGGLTVYTESVKGRFAISRDNAKNTVYLQMNSLKPEDTAVYYCNTVNYRVGWGPGTQVTVSS
notes: as for B1
Turning to B2, the binding result in assay [1] is recorded as “binds”.

B3: 161-H4 (VHH)
VHH: EVQLVESGGGLVQAGGSLRLSCAASGRPDSSYFMGWFRQAPGKEFEFVSRINWIGSNTAYADSVKGRFTISRDNAKNTVYLQMNSLKPEDTAVYFCVATTINSFNSGNYKDPRLWTYWAQGTQVTVSS
notes: as for B1
In the case of B3, in assay [1], the binding result is “binds”.

B4: 133-A1 (VHH)
VHH: EVQLVESGGGLVQAGESLRLSCVASGISISTEVMGWYRQAPGKQGESVAIIKTDGSTYYPDSVKGRFAISRDNAKNTVYLAMNSLKLEDTGVYYCIIAGRGRGQGTQVTVSS
notes: as for B1
For the molecule B4, the binding result in assay [2] is reported as “binds”.

B5: 161-A11 (VHH)
VHH: EVQLVESGGGLVQAEGSLRLSCVASGRTFDTYVMGWFRQAPGKEREFVAAINRSGVTDYPDSATGRFTISRENAKNTVYLQGTSLKPEDTGVYYCAARKAFYYGTSSYPNDYAHWGQGTQVTVSS
notes: as for B1
For B5, the binding result in assay [1] is “binds”.

B6: 161-C9 (VHH)
VHH: EVQLVESGGGLVQAEGSLRLSCVASGTHVMGWFRQASGKEREFVAAINRSGSTDYPDSADSAKGRFTISRDNAKNTVYLQMTSLKPEDTGVYYCAARKAFYFGTSSYPSDYAYWGQGTQVTVSS
notes: as for B1
Take B6: in assay [1], the binding result is listed as “binds”.

B7: 161-F2 (VHH)
VHH: EVQLVESGGGLVQAEGSLRLSCVASGPTFDTYVMGWFRQAPGKEREFVAAINRSGSTDYPDYWDSAKGRFTISRDNAKNTVYLQMTSLRPEDTGVYYCAARKTFYFGTSSYPNDYAYWGQGTQVTVSS
notes: as for B1
Take B7: the binding result in assay [1] was “binds”.

B8: 172-F7 (VHH)
VHH: EVQLVESGGGLVQAGGSLRLSCAASGRTFSRYVMGWFRQAPGKEREFVAVINWSGGSTDYSTYVKGRFTIFRDNAKNTVFLEMTSLEPEDTAVYYCAAGEYYTGDSSRYDHWGQGTPVTVSS
notes: as for B1
On to B8, for which, in assay [1], the binding result is recorded as “binds”.

B9: 161-E1 (VHH)
VHH: EVQLVESGGGLAQAGGSLRLSCAASGRTFSRYVMGWFRQAPGKEREFVSVINRSGGSTDYSTYVKGRFTIFRDNAKNTVFLEMTSLEPEDTAVYYCAAGEYYTGDSSRYDHWGQGTPVTVSS
notes: as for B1
B9: the binding result in assay [1] is listed as “binds”.

B10: 172-G3 (VHH)
VHH: EVQLVKSGGGLVQAGGSLRLSCAASGRTFSRYIMGWFRQAPGKEREFVAVINRSGGSTDYASSVKGRFTISRDNAKNTVYLEMTSLEPEDTAVYYCAAGEYYTGSSSRYDHWGQGTPVTVSS
notes: as for B1
Regarding B10, the binding result in assay [1] was “binds”.

B11: 172-B7 (VHH)
VHH: EVQLVESGGGLVQAGGSLRLSCAASGRTFSSYVMGWFRQAPGKEREFVSVINRSGGSTDYASSVKGRFTISRDNAKNTVYLEMTSLEPEDTAVYYCAAGEYYTGISSRYDYWGQGTPVTVSS
notes: as for B1
For the molecule B11, in assay [1], the binding result is given as “binds”.

B12: 172-A12 (VHH)
VHH: EVQLVESGGGLVQAGGSLRLSCAASGRTFSRYVMSWFRQAPGKEREFVAVINWSGGSTDYSTSVKGRFTIFRDNAKNTVYLETTSLELEDTAVYYCAAGEYYTGASSRYDHWGQGTPVTVSS
notes: as for B1
With B12, the binding result in assay [1] is recorded as “binds”.

B13: 172-C6 (VHH)
VHH: EVQLVESGGGVVQAGGSLSLSCAASGRTLSVYAMGWFRQAPGKEREFVATISVSGVYTYYTDSVKARFTISRDNAKNTVYLQMNSLKPEDTAVYYCAAGSKPTFLGSSYDYWGQGTQVTVSS
notes: as for B1
Regarding B13, the binding result in assay [1] is “binds”.

B14: 172-C1 (VHH)
VHH: EVQLVESGGGLVQAGGSLRLSCAASELAFDFDGYNFAWVRQAPGREREFVSVINRSGGSTDYASSVKGRFTISRDNAKNTVYLQMTSLEPEDTAVYYCAAGPYYTGSSDRYDYWGQGTPVTVSS
notes: as for B1
B14: the binding result in assay [1] is on record as “binds”.

B15: 172-B3 (VHH)
VHH: VQLVKSGGGGLVQAGGSLRLSCAASGRTFSRYVMGWFRQAPGKEREFVAVINRSGGSTDYAASVKGRFTIARDNAKNTVYLEMTSLEPEDTAVYYCAAGEYYTGSSSRYDHWGQGTPVTVSS
notes: as for B1
Regarding B15, the binding result in assay [1] is reported as “binds”.

B16: 172-C9 (VHH)
VHH: EVQLVESGGGLVQAGGSLRLSCAASGRTYSIDSMAWFRQAPGKERQFLGSILWSDDSTNYADSVKGRFTISRDNAKNTMYLQMGSLKPEDTAVYYCRSWDGRQVYWGQGTQVTVSS
notes: as for B1
For B16, in assay [1], the binding result is recorded as “binds”.

B17: 161-E2 (VHH)
VHH: EVQLVESGGGLVQAGGSLRLSCAASGRAFSSYVMGWFRQTPGKEREFVSVINWSGGSTDYSSSVKGRFTISRDNAKNTVYLQMTSLEPEDTAVYYCAAGQYYTGRSDRYDYWGQGTPVTVSS
notes: as for B1
B17: the binding result in assay [1] is “binds”.

B18: 161-H1 (VHH)
VHH: EVQLVESGGGLVQAGGSLRLSCAPSRRTFSTYVMGWFRQAPGMEREFVSAISWSSGSTRYADSVKGRFTISRDSVKNTMYLQMNSLKPEDTAVYYCAAGASFGSIFWESAREYNYWGQGTQVTVSS
notes: as for B1
As to B18, in assay [1], the binding result is “binds”.

B19: 172-A1 (VHH)
VHH: EVQLVESGGGLVQAGGSLRLSCTASGRTFSSFVMGWFRQAPGKEREFVAYITLRGGDSPLYADSVKDRFTISRDIAKNLVYLQMNSLKPEDTAVYYCAARYSGGSVYRNDYAYWGQGTQVTVSS
notes: as for B1
As for B19, the binding result in assay [1] is listed as “binds”.

B20: 107-A7 (VHH)
VHH: EVQLVESGGGLVQAGGSLRLSCVASGRTLSTVNMGWFRQAPGKERDIVARISGSSVSTYYAESVRGRFTISRDNAKNTVYLQMNSLRPEDTGVYYCVADSPGGRSYEYWGQGTQVTVSS
notes: as for B1
With B20, the binding result in assay [2] was “binds”.

B21: 107-G9 (VHH)
VHH: EVQLVESGGGLVQAGGSLRLSCVASGRTLSTVNMGWFRQAPGKERDIVARISPSSVSTYYSESVKGRFTISRDNAKNTVYLQMNSLRPEDTAVYYCVADSPGGRSYEYWGQGTQVTVSS
notes: as for B1
Turning to B21, the binding result in assay [2] was “binds”.

B22: 107-E9 (VHH)
VHH: EVQLVESGGGLVQAGGSLRLSCVASGRTLSSVNMGWFRQAPGKERDIVARISPSSVSTYYAESVKGRFTISRDNAKNTVYLQMNSLRPEDTGVYYCVADSPGGRSYEYWGQGTQVTVSS
notes: as for B1
In the case of B22, the binding result in assay [2] is “binds”.

B23: 107-C12 (VHH)
VHH: EVQLVESGGGLVQAGGSLRLSCVASGRTLSTVNMGWFRQAPGKERDIVARISGSSISTYYAESVRGRFTISRDNAKNTVYLQMNSLRPEDTAVYYCVADSPGGRSYEYWGQGTQVTVSS
notes: as for B1
On to B23, for which the binding result in assay [2] is on record as “binds”.

B24: 133-H11 (VHH)
VHH: EVQLVESGGGLVQAGGSLRLSCVASGRSLSTVNMGWFRQAPGKERDIVARISGSSISTYYAESVRGRFTISRDNAKNTVYLQMNSLRPEDTAVYYCVADSPGGRSYEFWGQGTQVTVSS
notes: as for B1
For the molecule B24, the binding result in assay [2] was “binds”.

B25: 107-A9 (VHH)
VHH: EVQLVESGGGLVQAGGSLRLSCVASGRTLSTYNMGWFRQAPGKERDIVARISGSSVSTYYAESVRGRFTISRDNAKNTMYLQMNNLRPEDTAVYYCVADGPGGRSYEYWGQGTQVTVSS
notes: as for B1
Regarding B25, in assay [2], the binding result is recorded as “binds”.

B26: 172-E5 (VHH)
VHH: EVQLVESGGGLVQTGGSLRLSCAASGSTFSNAVMGWFRQAPGKEREFVARITWNGGSTYYGDSAKGRFTISRDNAKTTAYLLMNSLQPEDTANYFCAARMRPVFYSTSGQESFYDYWGQGTQVTVSS
notes: as for B1
For B26, the binding result in assay [1] was “binds”.

B27: 161-A3 (VHH)
VHH: EVQLVESGGGLVQTGGSLRLSCAASGSTFSKAVMGWFRQAPGKEREFVARITWNGGSTYYGDSAKGRFTISRDIGKTTAYLLMNSLQPEDTANYFCAARMRPVFSSSSVQESFYDYWGQGTQVTVSS
notes: as for B1
In the case of B27, the binding result in assay [1] was “binds”.

B28: 172-F11 (VHH)
VHH: EVQLVESGGGLVQTGGSLRLSCAASGSTFSRAVMGWFRQAPGKEREFVARITWNGGSAYYGDSAKGRFTISRDNAKTTAYLLMNSLQPEDTANYFCAARMRPVSDSSSGQESFYDYWGQGTQVTVSS
notes: as for B1
Regarding B28, in assay [1], the binding result is “binds”.
